What was measured:
[1] = molecular target: surface nucleolin on human cells (human), P19338; experiment: cell-based or functional assay
[2] = molecular target: surface nucleolin on mouse cells (mouse), P09405; experiment: cell-based or functional assay
Sequence of surface nucleolin on mouse cells (mouse), P09405 (P09405 2-707): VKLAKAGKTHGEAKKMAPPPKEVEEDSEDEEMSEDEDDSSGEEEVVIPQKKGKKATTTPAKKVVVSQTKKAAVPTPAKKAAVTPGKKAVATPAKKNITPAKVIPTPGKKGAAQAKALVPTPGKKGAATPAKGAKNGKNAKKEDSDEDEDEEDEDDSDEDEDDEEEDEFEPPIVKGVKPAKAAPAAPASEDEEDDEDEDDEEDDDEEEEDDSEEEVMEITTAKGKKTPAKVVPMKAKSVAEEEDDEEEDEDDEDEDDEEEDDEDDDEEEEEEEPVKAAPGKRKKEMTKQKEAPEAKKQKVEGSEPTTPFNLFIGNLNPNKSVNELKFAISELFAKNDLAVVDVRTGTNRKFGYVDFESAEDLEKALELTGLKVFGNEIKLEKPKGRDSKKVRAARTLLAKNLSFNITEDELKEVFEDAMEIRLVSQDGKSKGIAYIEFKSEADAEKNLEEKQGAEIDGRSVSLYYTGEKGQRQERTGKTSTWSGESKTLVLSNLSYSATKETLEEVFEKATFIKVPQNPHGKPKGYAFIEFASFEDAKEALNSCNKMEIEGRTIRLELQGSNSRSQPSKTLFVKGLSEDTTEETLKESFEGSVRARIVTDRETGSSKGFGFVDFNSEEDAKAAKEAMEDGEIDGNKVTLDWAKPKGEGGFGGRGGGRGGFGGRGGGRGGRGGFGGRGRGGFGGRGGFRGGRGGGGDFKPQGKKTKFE

Sequence of surface nucleolin on human cells (human), P19338 (P19338 2-710): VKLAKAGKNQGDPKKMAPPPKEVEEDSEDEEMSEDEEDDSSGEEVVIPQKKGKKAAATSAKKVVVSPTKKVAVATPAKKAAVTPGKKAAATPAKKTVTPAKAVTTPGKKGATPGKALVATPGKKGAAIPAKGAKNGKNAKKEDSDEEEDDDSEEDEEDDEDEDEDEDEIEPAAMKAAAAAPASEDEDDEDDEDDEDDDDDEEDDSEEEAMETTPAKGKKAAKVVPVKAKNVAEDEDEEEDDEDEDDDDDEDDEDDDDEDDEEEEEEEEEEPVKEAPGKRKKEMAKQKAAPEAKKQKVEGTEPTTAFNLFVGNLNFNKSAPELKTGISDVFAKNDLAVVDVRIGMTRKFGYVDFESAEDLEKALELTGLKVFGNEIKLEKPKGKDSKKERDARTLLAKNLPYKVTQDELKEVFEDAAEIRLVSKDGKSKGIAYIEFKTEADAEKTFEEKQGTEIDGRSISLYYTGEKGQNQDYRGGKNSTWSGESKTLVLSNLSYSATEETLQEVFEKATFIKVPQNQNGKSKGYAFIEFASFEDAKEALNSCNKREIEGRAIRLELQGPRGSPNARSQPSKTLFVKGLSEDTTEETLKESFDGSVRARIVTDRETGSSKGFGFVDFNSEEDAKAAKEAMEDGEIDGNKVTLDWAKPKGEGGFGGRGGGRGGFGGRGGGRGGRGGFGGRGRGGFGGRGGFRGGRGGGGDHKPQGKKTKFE

ID50 (Inhibitory Dose at 50%) of surface nucleolin activity in HeLa P4 cells [1]: < 100 nM | inhibition of surface nucleolin activity in HeLa P4 cells at 0.8 µM [1]: > 95% | inhibition of TNF-alpha and IL-6 production by murine peritoneal macrophages stimulated by 10, 100 and 1000 ng/ml of LPS, at 10 µM of Nucant 7 [2]: > 95%
B1: hexavalent compound Nucant 7 (peptide)
chain: KAKPGKAKPGKAKPG
peptide: KPR
modifications: not checked
